Consider 2 molecules from US20190367961A1, “MOGROL GLYCOSYLTRANSFERASE AND GENE ENCODING SAME” (SUNTORY HOLDINGS LIMITED, priority 2014, published 2019).

This data set in a line: glucose transfer (glycosylation) activity for mogrol, product analysed by LC-IT-TOF-MS. The conditions noted are these: same enzyme conditions (0.2 mM mogrol, 2 mM UDP-glucose, 30° C., 3 hours). The class given is biochemical. Here is the method:
Purification was carried out using the HisTag of the recombinant protein according to an ordinary method, and glucose transfer activity for mogrol prepared by hydrolyzing a Siraitia grosvenorii extract (Takemoto, T. et al. (1983) YAKUGAKU ZASSHI 103(11), 1167-1173) was evaluated. The enzyme reaction composition was 0.2 mM mogrol as a glucose acceptor, 2 mM UDP-glucose as a glucose donor, and 50 mM calcium phosphate buffer (pH 7.5); an enzyme solution was added thereto, which was then reacted at 30° C. for 3 hours; and the product was analyzed using LC-IT-TOF-MS (Shimadzu Corporation).
Stevia-derived UGT85C2 and UGT73E1 were expressed in the same manner as in the above method. The product amount was measured under the above enzyme conditions to determine relative activity by dividing it by the expressed protein amount. As a result, the relative activities of stevia-derived UGT85C2 and UGT73E1 when the activity of SgUGT74-943 was set to 1 were 0.35 and 0.22, respectively. The glycosylation activity of Siraitia grosvenorii-derived SgUGT74-943 was confirmed to be nearly 3 times higher than those of stevia-derived UGT85C2 and UGT73E1 (FIG. 4).

B1: UGT85C2: steviol glycosyltransferase derived from stevia, known to glycosylate mogrol (protein, UniProt Q6VAB0 1-481, looked up)
UDP-glycosyltransferase 85C2: MDAMATTEKKPHVIFIPFPAQSHIKAMLKLAQLLHHKGLQITFVNTDFIHNQFLESSGPHCLDGAPGFRFETIPDGVSHSPEASIPIRESLLRSIETNFLDRFIDLVTKLPDPPTCIISDGFLSVFTIDAAKKLGIPVMMYWTLAACGFMGFYHIHSLIEKGFAPLKDASYLTNGYLDTVIDWVPGMEGIRLKDFPLDWSTDLNDKVLMFTTEAPQRSHKVSHHIFHTFDELEPSIIKTLSLRYNHIYTIGPLQLLLDQIPEEKKQTGITSLHGYSLVKEEPECFQWLQSKEPNSVVYVNFGSTTVMSLEDMTEFGWGLANSNHYFLWIIRSNLVIGENAVLPPELEEHIKKRGFIASWCSQEKVLKHPSVGGFLTHCGWGSTIESLSAGVPMICWPYSWDQLTNCRYICKEWEVGLEMGTKVKRDEVKRLVQELMGEGGHKMRNKAKDWKEKARIAIAPNGSSSLNIDKMVKEITVLARN
For the molecule B1, the “relative activity (product amount divided by expressed protein amount) when the activity of SgUGT74-943 was set to 1” value is 0.35.

B2: UGT73E1: steviol glycosyltransferase derived from stevia, known to glycosylate mogrol (protein, UniProt Q6VAA9 1-495, looked up)
UDP-glycosyltransferase 73E1: MSPKMVAPPTNLHFVLFPLMAQGHLVPMVDIARILAQRGATVTIITTPYHANRVRPVISRAIATNLKIQLLELQLRSTEAGLPEGCESFDQLPSFEYWKNISTAIDLLQQPAEDLLRELSPPPDCIISDFLFPWTTDVARRLNIPRLVFNGPGCFYLLCIHVAITSNILGENEPVSSNTERVVLPGLPDRIEVTKLQIVGSSRPANVDEMGSWLRAVEAEKASFGIVVNTFEELEPEYVEEYKTVKDKKMWCIGPVSLCNKTGPDLAERGNKAAITEHNCLKWLDERKLGSVLYVCLGSLARISAAQAIELGLGLESINRPFIWCVRNETDELKTWFLDGFEERVRDRGLIVHGWAPQVLILSHPTIGGFLTHCGWNSTIESITAGVPMITWPFFADQFLNEAFIVEVLKIGVRIGVERACLFGEEDKVGVLVKKEDVKKAVECLMDEDEDGDQRRKRVIELAKMAKIAMAEGGSSYENVSSLIRDVTETVRAPH
Consider B2, for which the “relative activity (product amount divided by expressed protein amount) when the activity of SgUGT74-943 was set to 1” value stood at 0.22.
